Data from the nanobody polyreactivity screen of Harvey et al. (2022).

Test: yeast display, Sf9 membrane polyspecificity reagent, FACS + sequencing; frameworks hold sequencing errors
Outline: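 Polyreactivity labels are assigned by the sorting gate from which each nanobody was recovered. The gates were low and high (top ~1%), set on anti-HA fluorescence for expression and streptavidin fluorescence for reagent binding. Before sorting, galactose-induced (36–48 hours) yeast display cells were stained for 1 hour at 4 °C with 10% biotinylated, detergent-solubilized Sf9 membrane reagent.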

Sequence	polyreactivity (PSR sort gate)
QVQLVESGGGLVQAGGSLRLSCAASGSIFNRYAMGWYRQAPGKERELVAAISSTGSTYYADSVKGRFTISRDNAKNTVYLQMNSLKPEDTAVYYCNADATHDWLRVDTYEYWGQGTQVTVSS	low polyreactivity
QVQLVESGGGLVQAGGSLRLSCAASGSIFNRYTMGWYRQAPGKERELVAAISKRGGSTYYADSVKGRFTISRDNAKNTVYLQMNSLKPEDTAVYYCAAAAYHSGKGGGYWGQGTQVTVSS	high polyreactivity
QVQLVESGGGLVQAGGSLRLSCAASGSIFNSNVMGWYRQAPGKERELVAAISTSGGSTHYADSVKGRFTISRDNAKNTVYLQMNSLKPEDTAVYYCAARVSSYSQLYYYWGQGTQVTVSS	high polyreactivity
QVQLVESGGGLVQAGGSLRLSCAASGSIFNSYAMGWYRQAPGKERELVAAISGSGTRTYYADSVKGRFTISRDNAKNTVYLQMNSLKPEDTAVYYCAGYGYWGQGTQVNVSS	high polyreactivity
QVQLVESGGGLVQAGGSLRLSCAASGSIFNSYAMGWYRQAPGKERELVAAISKRGGSTYYADSVKGRFTISRDNAKNTVYLQMNSLKPEDTAVYYCAAEYYYAGWSYSYDYWGQGTQVTVSS	high polyreactivity
QVQLVESGGGLVQAGGSLRLSCAASGSIFNSYAMGWYRQAPGKERELVAAITRSDGSTYYADSVKGRFTISRDKAKNTVYLQMNSLKPEDTAVYYCAKGVGGYIYSEYDYWGQGTQVTVSS	low polyreactivity
QVQLVESGGGLVQAGGSLRLSCAASGSIFNTNAMGWYRQAPGKERELVAAISKNAGRTFYADSVKGRFTISRDNAKNTVYLQMNSLKPEDTAVYYCAARGVGPQPGYQRFNYWGQGTQVTVSS	high polyreactivity
QVQLVESGGGLVQAGGSLRLSCAASGSIFNTYVMGWYRQAPGKERELVAAITSSGGRTYYADSVKGRFTISRDNAKNTVYLQMNSLKPEDTAVYYCNTAQRWVGRNDYWGQGTQVTVSS	high polyreactivity
QVQLVESGGGLVQAGGSLRLSCAASGSIFNWYAMGWSRQAPGKERELVAAISEDGGSTYYADSVKGRFTISRDNAKNTVYLQMNTLKPEDTAVYYCATPVASVTGYDYWGQGTQVTVSS	low polyreactivity
QVQLVESGGGLVQAGGSLRLSCAASGSIFNYNAMGWYRQAPGKERELVAAITWSGGTTYYADSVKGRFTISRDNAKNTVYLQMNSLIPEDTAVYYCAAEWWDGSYPLYEYYYWGQGTQVNVSS	high polyreactivity
QVQLVESGGGLVQAGGSLRLSCAASGSIFNYNDMGWYRQAPGKERELVATITNGGGTNYADSVKGRFTISRDNAKNTVFLQMNSLKPEDTAVYYCAAGRSGWGYDSWGQGTQVTVSS	low polyreactivity
QVQLVESGGGLVQAGGSLRLSCAASGSIFNYSAMGWYRQARGKERELVAGITTSGGSTYYADSVKGRFTISRDNAKNTVYLQMNSLKPEDTAVYYCAAYDYISSTYFLDDYWGQGTQVTVSS	low polyreactivity
QVQLVESGGGLVQAGGSLRLSCAASGSIFNYYAMGWYRQAPGKERELVAAITSGVSTYADSVKGRFTISRDNAKNTVYLQMNSLKPEVTAVYYCADRVTGPRGDYWGQGTQVTVSS	low polyreactivity
QVQLVESGGGLVQAGGSLRLSCAASGSIFNYYDMGWYRQAPGKERELVAAIDLTGGTTYYADSVKGRFTISRDNAKNTVYLQMNSLKPEDTAVYYCAAQYIRSSWWGYDYWGQGTQVSVSS	low polyreactivity
QVQLVESGGGLVQAGGSLRLSCAASGSIFPANAMGWYRQAPGKERELVAGISERGSSTYYADSVKGRFTISRDNAKNTDYLQMNSLKPEDTAVYYCAADDVGRYWSYTHNWARGDYWGQGTQVTVSS	low polyreactivity
QVQLVESGGGLVQAGGSLRLSCAASGSIFPAYAMGWYRQAPGKERELVAAITDRGGYTYYADSVKGRFTISRDNAKNTVYLQMNSLKPEDT	low polyreactivity
QVQLVESGGGLVQAGGSLRLSCAASGSIFPAYAMGWYRQAPGKERELVAAITFSGGSTYYADSVKGRFTISRDNAKNTVYLQMNSLKPEDTAVYYCATDSYGWRFNRAITSYGGDYWGQGTQVTVSS	low polyreactivity
QVQLVESGGGLVQAGGSLRLSCAASGSIFPAYAMGWYRQAPGTERELVAAITFSGGRTYYADSVKGRFTISRDNAKNTVYLQMNSLKPEDTAVYDCAAYGAPSGTGAKYGYWGQGTQVTVSS	low polyreactivity
QVQLVESGGGLVQAGGSLRLSCAASGSIFPEYVMGWYRQAPGKERELVAAISWSGGSTYYADSVKGRFTISRDNAKNTVYLQMNSLKPEDTAVYYCNRVPSWRIDYDYWGQGTQVTVSS	low polyreactivity
QVQLVESGGGLVQAGGSLRLSCAASGSIFPFNAMGWYRQAPGKERELVAAIRWSDGRTYYADSVKGRFTISRDNAKNTVYLQMNSLKPEDTAVYYCAAKSYWGQGTQVTVSS	high polyreactivity
QVQLVESGGGLVQAGGSLRLSCAASGSIFPFNAMGWYRQAPGKERELVAAISRRGTGTYYADSVKGRFTISRDNAKNTVYLQMNSLKPEDTAVYYCNAVVRAGHYDYWGQGTQVTVSS	high polyreactivity
QVQLVESGGGLVQAGGSLRLSCAASGSIFPFYALGLYSQAPGTDRELVAGISNGDSPNYADSVKGRFTIARDNAKNSVYLQLNSLKPEDTGVYYCATDLPGGRYYGPYDYWGQGTQGTVSS	low polyreactivity

Sequence	polyreactivity (PSR sort gate)
QVQLVESGGGLVQAGGSLRLSCAASGSIFPFYAMGWYRKAPGKERELVAAISDRGGSTYYADSVKGRFTISRDNAKNTVYLQMNSLKPDDTAVYYCAKGAEVSQGYTDEYDYWGQGTQVTVSS	low polyreactivity
QVQLVESGGGLVQAGGSLRLSCAASGSIFPGFAMGWYRQAPGKERELVAAISTSGGNTYYADSVKGRFTISRDNAKNTVYLQMNSLKPEDTAVYYCAVRHRLYTAGYDYWGQGTQVTVSS	low polyreactivity
QVQLVESGGGLVQAGGSLRLSCAASGSIFPGYAMGWYRPAPGKDRELVATIPWSGGSTYYADSVKGRFTISRDNENNTVYLQMNSLKPEDTAVYYCYADSYWYYQWYYYGLYDYWGAGTQVTVSS	low polyreactivity
QVQLVESGGGLVQAGGSLRLSCAASGSIFPGYAMGWYRQAPGKERELVATITWSGGSTYYADSVKGRFTISRDNAKNTVYLQMNSLKPADTAVYYCNADSNWYYQWNYYGLYDYWGQGTQVTVSS	low polyreactivity
QVQLVESGGGLVQAGGSLRLSCAASGSIFPGYAMGWYRQAPGNERELVAAISSGGNTHYADSVKGRFTISRDNAKNTVYLQMNSLKPEDTAVYYCAASYDYTYYWGQGTQVTVSS	low polyreactivity
QVQLVESGGGLVQAGGSLRLSCAASGSIFPGYARGWYRQAPGKERELVATITWSGGSTYYADSVKGRFTISRDNAKNTVYLQMNILIPEDTAVYYCNADSNWYYQWNYYGLYDYWGQGNQVTVSS	low polyreactivity
QVQLVESGGGLVQAGGSLRLSCAASGSIFPHNAMGWYRQAPGKERELVAAISTSGGRTYYADSVKGRFTISRDNAKNTVYLQMNSLKPVDTAVYYCNARSVRSRYDYWGQGTQVTVSS	high polyreactivity
QVQLVESGGGLVQAGGSLRLSCAASGSIFPHYAMGWYRQAPGKERELVASITYDGDSTYYADSVKGRFTISRDNAKNTVYLQMNSLKPEDTAVYYCAADYYYVYSSFGHYYWGQGTQVTVSS	low polyreactivity
QVQLVESGGGLVQAGGSLRLSCAASGSIFPIYAMGWYRQAPGKERELVAAIDSSGGSTYYADSVKGRFTISRDNAKNTVYLQMNSLKPEDTAVYYCAADFGSKSTPYDYWGQGTQVTVSS	low polyreactivity
QVQLVESGGGLVQAGGSLRLSCAASGSIFPLYAMGWSRQAPGKERELVAAITWRGGSTYYADSVKGRFTITRDNAKNTVYLQMNSLKPEDTAVYYCNRDLVPRFDYWGQGTQVTVSS	low polyreactivity
QVQLVESGGGLVQAGGSLRLSCAASGSIFPLYVMGWYRQAPGKERELVAAISSAADTYYADSVKGRFTISRDNAKNTVYLQMNSLKPEDTAVYYCAAAVLYWVGYGYWGQGTQVTVSS	low polyreactivity
QVQLVESGGGLVQAGGSLRLSCAASGSIFPPYALGWYRQAPGKERELVAAIDWGGSSTYYADSVKGRFTISRDNAKYTVYLQMNSLKPEATAVYYCAAEVVHGYYLYEYWGQGTQVTVSS	high polyreactivity
QVQLVESGGGLVQAGGSLRLSCAASGSIFPPYAMGWYRQAPGKERELVATITIRGGSTYYADSVKGRFTISRDNAKNTVYLEMNSLKPDDTAVYYCAADYTKYYRSYYYWGQGTQVTVSS	high polyreactivity
QVQLVESGGGLVQAGGSLRLSCAASGSIFPPYTMGWFRQAPGKELELVATISSTGITNYADSVKGRFTNSRDNAKNTVYLQMNSLKQEDTAVYYCAAGLWYSFDYWGQGTQVTVSS	high polyreactivity
QVQLVESGGGLVQAGGSLRLSCAASGSIFPPYVMGWYRQAPGKERELVASITTSGGSTYYADSVKGRFTISRDNAKNTVYLQMNSLKPEDTAVYYCAARWYYGGKSAGPGGGYWGQGTQVTVSS	low polyreactivity
QVQLVESGGGLVQAGGSLRLSCAASGSIFPRDAMGRYRQAPGKERELVAAITGSGSSTYYADSVKGRFTISRDNAKNTVYLQMNSLKPEDTAVYYCNTARPTAAYDYWGQGTKVTVSS	low polyreactivity
QVQLVESGGGLVQAGGSLRLSCAASGSIFPRNAMGWSRQAPGKERELVARINSGGTTKYADSVKGRFTISRDNAKNTVYLQMNSLKPEDTAVYYCNADTYILDPLRKSYGYDYWGQGTQVTVSS	low polyreactivity
QVQLVESGGGLVQAGGSLRLSCAASGSIFPRNAMGWYRQAPGKERELVAAITVSDGRTYYADSVKGRFTISRDNAKNTVYLQMNSLKPEDTAVYYCAAGYTYYSLYGYWGQGTQVTVSS	low polyreactivity
QVQLVESGGGLVQAGGSLRLSCAASGSIFPRYAMGWYRQAPGKERELVATISQSGGSTYYADSVKGRFTISRDSAKNTVYLQMNSLKPEDTAVYYCAAKVYRSAYYVGKYYPYYYWGQGTQVTVSS	high polyreactivity
QVQLVESGGGLVQAGGSLRLSCAASGSIFPSNAMGWYRQAPGKERELVAAISSSGGRTYYADSVKGRFTISRDNAKNTVYLQMNSLKPEDTAVYYCAAKYTVYGVGYYYWGQGTQVTVSS	high polyreactivity
QVQLVESGGGLVQAGGSLRLSCAASGSIFPSNAMGWYRQAPGKERELVAAISWSGDITYYADSVKGRFTISRDNAKNTVYLQMNSLKPEDTAVYYCAADTPIAGYWYNYWGQGTQVTVSS	low polyreactivity
